Twelve molecules from patent publication US20090304686A1 (UNIVERSOTAIR MEDISCH CENTRUM UTRECHT, published 2009) can be followed below.

Assay [1] concerns the target T1, human LAIR-1 (hLAIR-1a) expressed on cells (human, UniProt Q6GTX8 22-287).
T1 construct: whole, on cells; In the precipitation with collagen I fibrils it stood in cell lysates (transfected K562, PBMC)
T1 sequence (looked up): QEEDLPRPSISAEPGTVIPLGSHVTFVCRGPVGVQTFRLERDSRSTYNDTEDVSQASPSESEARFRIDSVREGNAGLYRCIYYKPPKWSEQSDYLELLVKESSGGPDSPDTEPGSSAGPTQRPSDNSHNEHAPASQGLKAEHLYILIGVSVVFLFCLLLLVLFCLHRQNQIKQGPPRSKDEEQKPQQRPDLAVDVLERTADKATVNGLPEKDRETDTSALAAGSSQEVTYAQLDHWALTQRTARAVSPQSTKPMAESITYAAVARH
The assay is described as follows: adhesion of K562 cells expressing hLAIR-1 to immobilized trimeric peptide. From the text: A: K562 cell adhesion assay. […] Percentage of adhering cells relative to input is shown.

The target in assay [2] is hLAIR-1-CD3ζ chimera on 2B4 NFAT-GFP reporter cells (human, UniProt Q6GTX8 22-165). The assay can be described thus: cell-based or functional assay.
Assay [3] concerns the target T2, full-length mouse collagen XXIII with C-terminal His6- and FLAG-tag (transiently expressed on 293T cells) (mouse, UniProt Q8K4G2 1-532).
T2 construct: whole, on cells; not shown: C-terminal His6- and FLAG-tag
The assay is described as follows: flow cytometry on 293T cells transiently transfected with HIS-tagged collagens. On the technique in general: Flow cytometry measures light scatter and fluorescence of single cells or particles in a stream.

The target of assay [4] is T3, human collagen XVII (full length, on transfected Ba/F3 or K562 cells, or endogenous on HT29 cells) (human, UniProt Q9UMD9 1-1497).
T3 construct: whole, on cells; also called transmembrane collagen XVII
T3 sequence (looked up): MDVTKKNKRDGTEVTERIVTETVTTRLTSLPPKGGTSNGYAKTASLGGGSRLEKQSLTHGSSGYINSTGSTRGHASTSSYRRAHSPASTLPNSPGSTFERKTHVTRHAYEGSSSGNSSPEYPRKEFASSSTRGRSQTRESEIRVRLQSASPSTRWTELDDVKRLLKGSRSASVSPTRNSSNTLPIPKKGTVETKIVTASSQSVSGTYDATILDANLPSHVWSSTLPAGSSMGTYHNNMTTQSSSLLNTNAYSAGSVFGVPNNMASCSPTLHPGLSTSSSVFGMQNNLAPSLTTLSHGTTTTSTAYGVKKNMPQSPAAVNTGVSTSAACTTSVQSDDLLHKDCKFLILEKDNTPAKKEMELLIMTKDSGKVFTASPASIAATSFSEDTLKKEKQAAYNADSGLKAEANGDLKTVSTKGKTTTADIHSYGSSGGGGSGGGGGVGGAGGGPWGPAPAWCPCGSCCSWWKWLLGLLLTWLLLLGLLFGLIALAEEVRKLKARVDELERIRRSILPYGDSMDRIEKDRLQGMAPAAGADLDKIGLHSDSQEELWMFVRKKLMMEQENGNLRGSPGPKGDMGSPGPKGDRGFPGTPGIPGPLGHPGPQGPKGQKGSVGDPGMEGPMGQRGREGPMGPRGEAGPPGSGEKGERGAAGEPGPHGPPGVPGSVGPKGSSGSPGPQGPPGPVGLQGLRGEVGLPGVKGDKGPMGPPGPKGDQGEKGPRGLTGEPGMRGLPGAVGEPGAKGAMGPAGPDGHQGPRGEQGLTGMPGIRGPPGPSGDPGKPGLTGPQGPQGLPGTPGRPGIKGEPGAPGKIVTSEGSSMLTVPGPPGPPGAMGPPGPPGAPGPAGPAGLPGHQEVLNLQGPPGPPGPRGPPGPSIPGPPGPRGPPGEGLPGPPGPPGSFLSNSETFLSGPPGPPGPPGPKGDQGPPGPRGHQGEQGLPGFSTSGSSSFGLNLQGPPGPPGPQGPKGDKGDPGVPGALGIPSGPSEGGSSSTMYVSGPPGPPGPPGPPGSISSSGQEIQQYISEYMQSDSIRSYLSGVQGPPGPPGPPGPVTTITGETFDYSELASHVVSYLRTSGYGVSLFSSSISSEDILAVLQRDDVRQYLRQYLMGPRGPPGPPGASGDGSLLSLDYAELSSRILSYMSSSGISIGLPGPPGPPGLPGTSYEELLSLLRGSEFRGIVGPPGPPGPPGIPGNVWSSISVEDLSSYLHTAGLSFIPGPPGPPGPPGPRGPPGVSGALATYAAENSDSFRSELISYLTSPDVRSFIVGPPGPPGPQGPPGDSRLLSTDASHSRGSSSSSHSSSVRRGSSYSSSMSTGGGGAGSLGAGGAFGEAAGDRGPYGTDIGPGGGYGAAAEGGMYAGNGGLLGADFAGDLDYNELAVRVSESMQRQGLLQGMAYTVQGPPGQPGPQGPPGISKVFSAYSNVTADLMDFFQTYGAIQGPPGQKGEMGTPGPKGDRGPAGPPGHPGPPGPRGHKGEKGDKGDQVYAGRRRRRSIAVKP
The assay can be described thus: flow cytometry.

Assay [5] concerns the target T4, collagen III (purified, Sigma; acid-soluble human collagen type III in BIAcore) (human, UniProt P02461 154-1221).
T4 construct: Human is stated for BIAcore and the immunoprecipitation; also called hcollagen III
T4 sequence (looked up): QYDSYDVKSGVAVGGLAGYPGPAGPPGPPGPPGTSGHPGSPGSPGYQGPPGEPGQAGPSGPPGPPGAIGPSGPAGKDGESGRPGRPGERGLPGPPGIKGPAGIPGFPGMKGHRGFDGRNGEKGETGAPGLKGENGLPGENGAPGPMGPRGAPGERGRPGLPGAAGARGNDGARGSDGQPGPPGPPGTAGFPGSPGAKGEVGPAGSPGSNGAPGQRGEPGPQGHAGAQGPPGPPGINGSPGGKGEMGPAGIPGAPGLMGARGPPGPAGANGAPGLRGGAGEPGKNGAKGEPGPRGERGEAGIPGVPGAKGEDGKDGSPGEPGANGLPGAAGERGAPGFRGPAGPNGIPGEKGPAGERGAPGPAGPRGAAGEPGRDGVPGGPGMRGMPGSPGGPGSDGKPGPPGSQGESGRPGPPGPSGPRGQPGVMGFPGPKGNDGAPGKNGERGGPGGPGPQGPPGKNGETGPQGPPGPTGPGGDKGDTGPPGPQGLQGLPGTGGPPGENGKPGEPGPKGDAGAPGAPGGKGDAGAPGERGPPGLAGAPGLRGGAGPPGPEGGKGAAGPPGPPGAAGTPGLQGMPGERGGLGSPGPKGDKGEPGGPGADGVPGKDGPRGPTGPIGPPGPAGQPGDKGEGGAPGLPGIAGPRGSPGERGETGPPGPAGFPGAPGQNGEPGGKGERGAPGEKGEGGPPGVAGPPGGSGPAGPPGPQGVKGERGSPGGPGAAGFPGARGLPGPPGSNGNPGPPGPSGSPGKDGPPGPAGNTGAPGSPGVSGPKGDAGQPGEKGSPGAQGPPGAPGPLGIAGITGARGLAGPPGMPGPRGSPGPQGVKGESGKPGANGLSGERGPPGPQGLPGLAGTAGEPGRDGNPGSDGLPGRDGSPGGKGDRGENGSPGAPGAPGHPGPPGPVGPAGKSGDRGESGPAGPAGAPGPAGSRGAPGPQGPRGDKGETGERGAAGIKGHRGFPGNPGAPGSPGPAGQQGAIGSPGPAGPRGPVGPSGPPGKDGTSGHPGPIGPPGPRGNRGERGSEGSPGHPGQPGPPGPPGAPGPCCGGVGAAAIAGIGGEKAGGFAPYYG
The assay is described as follows: immunoprecipitation, blot with anti-collagen III.

The target of assay [6] is T5, mouse collagen XVII (on LAIR-ligand-positive Ba/F3 clones) (mouse, UniProt Q07563 1-1470).
T5 construct: whole, on cells; The precipitated spot was about 140 kDa; also called mLAIR-ligand
The assay is described as follows: flow cytometry; immunoprecipitation with mLAIR-1-IgG and 2D blot of surface-biotinylated proteins [B].

The target of assay [7] is T3, human collagen XVII (full length, on …). The assay can be described thus: flow cytometry [C].

T2 sequence (Q8K4G2 whole entry): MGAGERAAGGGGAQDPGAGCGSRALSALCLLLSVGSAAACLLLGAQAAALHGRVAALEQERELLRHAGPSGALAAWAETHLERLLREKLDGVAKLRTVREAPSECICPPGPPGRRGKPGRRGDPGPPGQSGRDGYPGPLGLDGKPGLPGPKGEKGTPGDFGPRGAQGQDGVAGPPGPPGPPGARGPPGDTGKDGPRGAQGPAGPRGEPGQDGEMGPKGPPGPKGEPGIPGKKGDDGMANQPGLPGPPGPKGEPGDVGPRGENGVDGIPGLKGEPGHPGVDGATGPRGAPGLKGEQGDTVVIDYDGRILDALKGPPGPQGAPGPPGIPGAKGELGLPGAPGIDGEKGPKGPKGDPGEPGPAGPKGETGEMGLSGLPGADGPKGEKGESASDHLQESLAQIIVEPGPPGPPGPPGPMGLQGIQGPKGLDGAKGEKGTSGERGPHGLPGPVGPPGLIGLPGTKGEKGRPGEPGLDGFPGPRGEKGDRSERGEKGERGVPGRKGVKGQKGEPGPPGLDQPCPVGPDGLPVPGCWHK
T5 sequence (Q07563 whole entry): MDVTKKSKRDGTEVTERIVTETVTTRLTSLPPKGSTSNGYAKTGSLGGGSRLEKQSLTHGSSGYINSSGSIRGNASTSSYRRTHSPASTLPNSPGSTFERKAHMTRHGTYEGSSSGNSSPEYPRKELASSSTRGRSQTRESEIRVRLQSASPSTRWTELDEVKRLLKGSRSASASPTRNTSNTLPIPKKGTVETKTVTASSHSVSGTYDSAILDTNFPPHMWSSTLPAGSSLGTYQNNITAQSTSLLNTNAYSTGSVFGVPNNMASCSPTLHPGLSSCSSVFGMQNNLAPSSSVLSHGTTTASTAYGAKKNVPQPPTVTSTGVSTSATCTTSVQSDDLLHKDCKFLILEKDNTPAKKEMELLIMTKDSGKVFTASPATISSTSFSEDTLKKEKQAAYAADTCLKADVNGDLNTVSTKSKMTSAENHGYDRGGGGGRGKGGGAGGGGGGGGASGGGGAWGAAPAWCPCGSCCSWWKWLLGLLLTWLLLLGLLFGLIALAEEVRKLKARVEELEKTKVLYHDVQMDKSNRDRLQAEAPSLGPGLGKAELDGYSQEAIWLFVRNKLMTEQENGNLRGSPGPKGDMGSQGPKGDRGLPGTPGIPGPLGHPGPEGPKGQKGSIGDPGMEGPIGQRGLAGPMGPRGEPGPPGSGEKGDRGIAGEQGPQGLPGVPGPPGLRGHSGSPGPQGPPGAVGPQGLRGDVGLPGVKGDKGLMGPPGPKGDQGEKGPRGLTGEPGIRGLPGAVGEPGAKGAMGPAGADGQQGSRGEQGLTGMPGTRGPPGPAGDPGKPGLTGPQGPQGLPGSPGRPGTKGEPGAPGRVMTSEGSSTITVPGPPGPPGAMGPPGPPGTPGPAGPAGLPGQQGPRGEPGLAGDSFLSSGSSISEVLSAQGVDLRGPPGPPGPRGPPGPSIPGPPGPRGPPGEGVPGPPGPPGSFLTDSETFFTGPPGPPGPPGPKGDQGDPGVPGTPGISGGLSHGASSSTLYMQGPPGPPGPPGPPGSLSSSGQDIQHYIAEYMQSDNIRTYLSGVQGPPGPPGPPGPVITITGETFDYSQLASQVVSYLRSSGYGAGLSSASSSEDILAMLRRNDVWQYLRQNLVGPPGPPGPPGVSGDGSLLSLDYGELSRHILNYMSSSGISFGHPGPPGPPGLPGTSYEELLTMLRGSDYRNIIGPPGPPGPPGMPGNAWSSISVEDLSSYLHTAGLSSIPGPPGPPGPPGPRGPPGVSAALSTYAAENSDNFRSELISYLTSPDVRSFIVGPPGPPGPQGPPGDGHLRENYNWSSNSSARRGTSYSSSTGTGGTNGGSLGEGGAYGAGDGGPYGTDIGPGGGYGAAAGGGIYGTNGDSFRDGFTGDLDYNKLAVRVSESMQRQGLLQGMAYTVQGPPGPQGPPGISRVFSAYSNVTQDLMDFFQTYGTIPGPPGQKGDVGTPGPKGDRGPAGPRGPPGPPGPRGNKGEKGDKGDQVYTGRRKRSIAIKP

B1: Collagen II Toolkit peptide 30 (peptide)
peptide: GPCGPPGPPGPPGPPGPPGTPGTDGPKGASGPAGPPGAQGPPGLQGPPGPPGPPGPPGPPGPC
modifications: O = hydroxyproline as printed; C-terminal amide (-NH2)
notes: Homotrimeric triple-helical peptide; also called II-30; human collagen II peptide 30
B1: the “percentage of adhering cells relative to input” value in assay [1] is greater than 10%. Moreover, in assay [2], the “GFP expression of 2B4 NFAT-GFP reporter cells” value (from here on “GFP expression”) was > 10 % of cells GFP-positive.

B2: Collagen III Toolkit peptide 44 (peptide)
peptide: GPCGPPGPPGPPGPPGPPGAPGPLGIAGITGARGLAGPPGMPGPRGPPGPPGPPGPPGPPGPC
modifications: O = hydroxyproline as printed; C-terminal amide (-NH2)
notes: Homotrimeric triple-helical peptide; also called III-44; collagen III peptide 44
Consider B2, for which, in assay [1], the “percentage of adhering cells relative to input” value was greater than 10%. Also, the “GFP expression” value in assay [2] is > 10 % of cells GFP-positive.

B3: Collagen II Toolkit peptide 49 (peptide)
peptide: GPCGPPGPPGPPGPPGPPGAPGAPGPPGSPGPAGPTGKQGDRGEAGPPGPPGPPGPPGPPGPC
modifications: O = hydroxyproline as printed; C-terminal amide (-NH2)
Turning to B3, the “GFP expression” value in assay [2] was > 10 % of cells GFP-positive.

B4: Collagen III Toolkit peptide 32 (peptide)
peptide: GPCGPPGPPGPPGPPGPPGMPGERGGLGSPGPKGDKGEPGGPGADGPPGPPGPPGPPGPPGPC
modifications: O = hydroxyproline as printed; C-terminal amide (-NH2)
Take B4: the “GFP expression” value in assay [2] is > 10 % of cells GFP-positive.

B5: Collagen II Toolkit peptide 42 (peptide)
peptide: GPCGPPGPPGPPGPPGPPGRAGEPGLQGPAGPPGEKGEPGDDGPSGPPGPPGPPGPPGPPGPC
modifications: O = hydroxyproline as printed; C-terminal amide (-NH2)
On to B5, for which the “GFP expression” value in assay [2] was > 10 % of cells GFP-positive.

B6: rLAIR-1-IgG (rat LAIR-1 fused to the Fc region of human IgG1) (Fc fusion, UniProt P0C1X9 22-143, looked up)
chain: QEESLSDFTICAEPGPVIPQGNFITIVCSTSGEYDTVRLEKEGSTFMEKKTEPHGKQHRFRIGPVNETITGYYNCIFEKNYVWSQRSNDLQLKVIKENVTQGLAPGPSMTSDTSWLKTYSIH
notes: also called rat LAIR-1-IgG fusion protein; not shown: Fc region of human IgG1
Take B6: the binding result in assay [3] and in assay [4] was “binds” in each case.

B7: mLAIR-1-IgG (mouse LAIR-1 fused to the Fc region of human IgG1) (Fc fusion, UniProt Q8BG84 22-144, looked up)
chain: QEGSLPDITIFPNSSLMISQGTFVTVVCSYSDKHDLYNMVRLEKDGSTFMEKSTEPYKTEDEFEIGPVNETITGHYSCIYSKGITWSERSKTLELKVIKENVIQTPAPGPTSDTSWLKTYSIY
notes: also called mouse LAIR-1-IgG fusion protein; not shown: Fc region of human IgG1
For the molecule B7, the binding result in assay [3], in assay [5], in assay [6] and in assay [7] was “binds” in each case.

B8: Collagen III Toolkit peptide 5 (peptide)
peptide: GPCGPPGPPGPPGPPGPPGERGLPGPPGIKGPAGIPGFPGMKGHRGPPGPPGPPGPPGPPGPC
modifications: O = hydroxyproline as printed; C-terminal amide (-NH2)
Regarding B8, the “GFP expression” value in assay [2] was > 10 % of cells GFP-positive.

B9: Collagen III Toolkit peptide 1 (peptide)
peptide: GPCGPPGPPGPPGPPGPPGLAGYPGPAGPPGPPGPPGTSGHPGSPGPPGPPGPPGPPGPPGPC
modifications: O = hydroxyproline as printed; C-terminal amide (-NH2)
notes: Homotrimeric triple-helical peptide; also called III-1; collagen III peptide 1
B9: in assay [1], the “percentage of adhering cells relative to input” value is greater than 10%. In assay [2], the “GFP expression” value was > 10 % of cells GFP-positive.

B10: Collagen II Toolkit peptide 1 (peptide)
peptide: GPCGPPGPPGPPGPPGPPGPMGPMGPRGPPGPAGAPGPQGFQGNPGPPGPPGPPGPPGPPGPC
modifications: O = hydroxyproline as printed; C-terminal amide (-NH2)
On to B10, for which the “GFP expression” value in assay [2] is > 10 % of cells GFP-positive.

B11: Collagen III Toolkit peptide 51 (peptide)
peptide: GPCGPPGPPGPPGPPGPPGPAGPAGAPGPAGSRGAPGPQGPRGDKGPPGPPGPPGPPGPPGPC
modifications: O = hydroxyproline as printed; C-terminal amide (-NH2)
notes: Homotrimeric triple-helical peptide; also called III-51; collagen III peptide 51
Take B11: in assay [1], the “percentage of adhering cells relative to input” value was greater than 10%. In assay [2], the “GFP expression” value is > 10 % of cells GFP-positive.

B12: Collagen III Toolkit peptide 38 (peptide)
peptide: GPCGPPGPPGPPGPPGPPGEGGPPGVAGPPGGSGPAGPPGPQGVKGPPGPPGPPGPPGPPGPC
modifications: O = hydroxyproline as printed; C-terminal amide (-NH2)
notes: Homotrimeric triple-helical peptide; also called III-38; collagen III peptide 38
Regarding B12, the “percentage of adhering cells relative to input” value in assay [1] was greater than 10%. Besides, in assay [2], the “GFP expression” value is > 10 % of cells GFP-positive.
